# According to PMC8617759, “Characterization of a Novel L-Asparaginase from Mycobacterium gordonae with Acrylamide Mitigation Potential” (Foods, 2021):
# System: NC(=O)C[C@H](N)C(=O)O
# Test: Nessler ammonia assay, OD436; Lineweaver-Burk
# Assay type: biochemical, Mycobacterium gordonae
# Settings: 50 mM PBS pH 8.0, 37 °C, 2 min, 1-20 mM substrate
substance,measurement,value
GmASNase (Mycobacterium gordonae L-asparaginase) (Mycobacterium gordonae),Km,6.025 mM
same,kcat,"11,864.71 min^-1"
